In US20210079423:

Columns and labels:
[1] = system: PR407: SP(HSA)-PTEN-L-cathepsin B*-HSA-6xHis (secreted form)
[2] = system: PR408: SP(HSA)-PTEN-L-cathepsinB**-HSA-6xHis (secreted form)
[3] = system: PR406: SP(HSA)-PTEN-L-cathepsin B-HSA-6xHis (secreted form)
[4] = system: PR405: SP(HSA)-PTEN-L-MMP2/9-HSA-6xHis (secreted form)
[5] = system: PR402: SP(HSA)-PTEN-L-HSA-6xHis (secreted, mature form)

recombinant active MMP2 protease (Enzo cat. #BML-SE237-0010), sequence (chain, as listed by the source): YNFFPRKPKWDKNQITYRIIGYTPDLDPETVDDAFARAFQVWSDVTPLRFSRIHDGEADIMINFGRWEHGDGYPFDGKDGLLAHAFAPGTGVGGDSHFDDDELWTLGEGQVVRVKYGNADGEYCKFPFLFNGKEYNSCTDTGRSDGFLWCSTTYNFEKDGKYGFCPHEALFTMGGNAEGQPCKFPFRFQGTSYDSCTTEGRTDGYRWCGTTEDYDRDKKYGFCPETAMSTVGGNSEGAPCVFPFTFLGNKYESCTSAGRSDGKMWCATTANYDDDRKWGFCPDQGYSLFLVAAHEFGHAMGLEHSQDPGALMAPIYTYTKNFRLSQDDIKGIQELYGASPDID

“active CATSB (Cathepsin B; BioVision #7580-5)” was tested, and the “pH dependence of in vitro cleavage (pH 5.0 against pH 7.0 buffer)” value [1] was “CATSB only cleaves PR407 and PR408 at a low pH (FIG. 15)”, the “pH dependence of in vitro cleavage (pH 5.0 against pH 7.0 buffer)” value [2] was “CATSB only cleaves PR407 and PR408 at a low pH (FIG. 15)” and the “in vitro cleavage of the fusion” value [3] was “though it did not cleave PR406 (SEQ ID NO:130; cDNA SEQ ID NO:158)”. The “in vitro cleavage of the fusion” value [4] was “PR405 (SEQ ID NO:129; cDNA SEQ ID NO:157) was not cleaved by CATSB” and the “in vitro cleavage of the fusion (F-1 anti-PTEN western blot of digests at t=0, 4 h, 21 h)” value [5] was “PR402 was not appreciably cleaved by either recombinant MMP2 or CATSB”.

In the case of “recombinant active MMP2 protease (Enzo cat. #BML-SE237-0010)”, the “in vitro cleavage of the fusion” value [1] is reported as “MMP2 did however cleave its consensus site (SEQ ID NO:165) on PR405 only”, the “in vitro cleavage of the fusion” value [2] is reported as “MMP2 did however cleave its consensus site (SEQ ID NO:165) on PR405 only” and the “in vitro cleavage of the fusion” value [3] is reported as “MMP2 did however cleave its consensus site (SEQ ID NO:165) on PR405 only”. For the same substance, the “in vitro cleavage of the fusion, release of a PTEN-L-like fragment (~70 KDa)” value [4] was “MMP2 did however cleave its consensus site (SEQ ID NO:165) on PR405 only; this cleavage released a PTEN-L-like fragment (~70 KDa)” and the “in vitro cleavage of the fusion (F-1 anti-PTEN western blot of digests at t=0, 4 h, 21 h)” value [5] was “PR402 was not appreciably cleaved by either recombinant MMP2 or CATSB”.
